Assay results published in patent publication US20060228299A1 (University of Texas, published 2006).

Target: T1, murine β2GPI (in normal mouse serum) (mouse, UniProt Q01339 20-345)
T1 construct: mature; also called mouse β2GPI
T1 sequence (looked up): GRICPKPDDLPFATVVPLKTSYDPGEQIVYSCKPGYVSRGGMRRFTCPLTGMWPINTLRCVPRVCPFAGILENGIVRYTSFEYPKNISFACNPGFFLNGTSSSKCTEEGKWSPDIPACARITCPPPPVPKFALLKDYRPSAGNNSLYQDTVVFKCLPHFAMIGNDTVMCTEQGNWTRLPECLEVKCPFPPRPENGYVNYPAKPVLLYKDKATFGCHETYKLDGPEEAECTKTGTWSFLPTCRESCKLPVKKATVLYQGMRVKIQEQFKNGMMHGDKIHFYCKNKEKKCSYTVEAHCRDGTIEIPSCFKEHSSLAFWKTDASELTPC
Test: immunoblot of 10% normal mouse serum

B1: 3G4 mouse monoclonal antibody as used in Example XXX (converted to mouse IgG2a isotype, produced in NS0 cells) (antibody, V domains shown)
VH: EVQLQQSGPELEKPGASVKLSCKASGYSFTGYNMNWVKQSHGKSLEWIGHIDPYYGDTSYNQKFRGKATLTVDKSSSTAYMQLKSLTSEDSAVYYCVKGGYYGHWYFDVWGAGTTVTVSS
VL: DIQMTQSPSSLSASLGERVSLTCRASQDIGSSLNWLQQGPDGTIKRLIYATSSLDSGVPKRFSGSRSGSDYSLTISSLESEDFVDYYCLQYVSSPPTFGAGTKLELKR
notes: It was purified from serum-free media (SFM) or serum-containing media (SCM); also called 3G4 SFM; 3G4 SCM
B1: no binding (tested: 1 µg/ml).
